# In patent publication US20240041978A1, “LA PROTEIN AS A NOVEL REGULATOR OF OSTEOCLASTOGENESIS” (The U.S.A., as Represented by the Secretary, Department of …, priority 2021, published 2024):
# Experiments:
# [1] = tested on: human osteoclasts; assay: Synchronized osteoclast membrane fusion after LPC removal; format: cell-based; conditions: recombinant La applied to LPC-synchronized osteoclasts
# Description: It was then assessed whether La at the surface of human osteoclasts functions at the cell fusion stage of osteoclastogensis. All cell-cell fusion events in development and tissue maintenance proceed through slow (days), asynchronous differentiation processes that prepare fusion competent cells (Brukman et al., J Cell Biol 218, 1436-1451, doi:10.1083/jcb.201901017 (2019)). Then, PM fusion occurs by the rapid (minutes) progression from the initial formation of hemifusion connections to fusion pores that unite the volumes of two cells (FIG. 3D, top). These steps were decoupled in the formation of multinucleated syncytia using the hemifusion inhibitor lysophosphatidylcholine (LPC) (Verma et al., J Biol Chem 293, 254-270, doi:10.1074/jbc.M117.809681 (2018)). LPC's inverted cone shape is not conducive to the concave geometry of the hemifusion stalk, so ready-to-fuse cells are trapped upstream of hemifusion. After removing LPC, cells undergo synchronized fusion relatively rapidly (within 90 mins), affording the ability to assess the function of proteins specifically in the membrane fusion stage of osteoclast formation decoupled from upstream differentiation processes (FIG. 3D, bottom). Ready-to-fuse, RANKL committed cells were accumulated in the presence of LPC, and then this hemifusion blockade was lifted by washing out LPC. […]
# [2] = molecular target: T1, Anx A5 on PS containing liposomes (Homo sapiens, UniProt P08758); assay: Liposome binding assay
# T1 sequence (P08758 1-320): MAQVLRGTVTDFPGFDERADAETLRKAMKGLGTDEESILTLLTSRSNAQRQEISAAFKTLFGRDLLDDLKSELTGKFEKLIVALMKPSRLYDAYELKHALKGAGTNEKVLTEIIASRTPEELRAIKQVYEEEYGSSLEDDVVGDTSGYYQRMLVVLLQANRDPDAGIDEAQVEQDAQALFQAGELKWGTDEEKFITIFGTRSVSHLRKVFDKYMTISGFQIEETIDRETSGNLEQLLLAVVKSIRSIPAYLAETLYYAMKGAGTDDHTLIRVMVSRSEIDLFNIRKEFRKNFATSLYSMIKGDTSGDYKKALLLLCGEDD
# Text: Anx A5 binds to PS containing membranes in a Ca^2+-dependent manner. Recombinant La was introduced alone or along with recombinant Anx A5 to PS containing liposomes and pelleted liposomes by centrifugation to evaluate whether La was enriched with liposomes or in supernatant (FIG. 12C).
# Liposome binding assay: Multilamellar liposomes were formed from pure PC or 9:1 (w/w) mixture of PC and PS. Both lipid compositions were supplemented with 0.5 mol % of lissamine rhodamine phosphatidylethanolamine. To prepare liposomes, lipid stock in benzene/methanol (95:5) was frozen in liquid nitrogen and freeze-dried overnight using SPEEDVAC™ (Savant). Dried lipid was resuspended in aqueous buffer (100 mM NaCl, 10 mM Hepes, pH 7.0) at 1 mM total lipid concentration and vortexed. Proteins and CaCl2 were added to the liposomes and the mixtures were incubated on ice for 30 minutes. To pellet, liposomes were centrifugated at 15,000 g for 20 minutes to pellet, based on rhodamine fluorescence ˜95% of liposomes. Centrifugated samples were then fractionated into a top, liposome-depleted fraction and a bottom fraction containing liposomes and liposome-bound proteins. Fractions were then solubilized via addition of Laemmli buffer (Bio Rad) and separated via SDS-PAGE, as described above. Recombinant La and recombinant Anx A5 were detected via their n-terminal 6×His tag via α-6×His antibody (Abcam) and signals for soluble vs liposome bound protein fractions were evaluated via densitometry. Data were presented as a percentage of protein signal bound to liposomes where: […]
# [3] = tested on: HA0-expressing 3T3 fibroblasts and red blood cells; assay: HA0-RBC fusion assay; format: cell-based, mouse, human
# [4] = tested on: human monocyte-derived osteoclasts; assay: Osteoclast fusion assay (number of fusion events, fluorescence microscopy); format: cell-based; conditions: recombinant protein ~40 nM added end of day 2 post-RANKL, overnight
# Description: Osteoclasts: Elutriated monocytes from healthy donors were obtained. Cells were plated at 2.9×10^5 per cm^2 in 35 mm dishes with polymer coverslip bottoms (Ibidi #81156) for imaging or 35 mm or 10 cm dishes for biochemical experiments in complete media [α-MEM supplemented with 10% Fetal Bovine Serum (FBS) and penicillin-streptomycin-L-glutamine (Gibco Invitrogene #12571063; #26140079 and #10378016, respectively)]. Monocytes were differentiated to M2 macrophages in the presence of 100 ng/ml M-CSF for 6 days and then differentiated with 100 ng/ml M-CSF and 100 ng/ml RANKL for 3 days unless indicated otherwise. RAW 264.7 cells (ATCC, Manassas, VA, #TIB-71) were maintained in DMEM supplemented with 10% FBS to a maximum of 8 passages. RAW 264.7 cells were differentiated to osteoclasts in the presence of 100 ng/ml murine RANKL for 5 days. To separate unfused mononucleated and fused, multinucleated RAW 264.7 cells into separate fractions, advantage was taken of the much stronger adherence of multinucleated cells to culture dish plastic. After washing in PBS, mixed RAW cultures (following RANKL differentiation) were left in Ca^2+ and Mg^2+ free PBS for 10 minutes at room temperature. Culture dishes were then tapped on the lab bench and a large portion of unfused, mononucleated RAW cells were released, and these released cells were collected via centrifugation. This process was repeated 2-4 times until dishes were left with a population of primarily fused, multinucleated syncytia. Mononucleated and multinucleated cell fractions were then processed for biochemical or imaging experiments as described below.
# Constructs & Recombinant proteins & Transfection: Recombinant La 1-408, 1-375, 1-375 Q20A_Y24A_D33I, 1-187 and 188-375 were amplified with primers designed with overlapping sequences and inserted between NdeI/HindIII in the V78 pET28A E. coli expression vector, adding to each a N-terminal 6×his affinity tag. La 1-408 was expressed as a recombinant protein in E. coli and purified using IMAC columns by SD Biosciences (San Diego, CA). The remaining constructs were transformed into BL2 (DE3) chemically competent E. coli (Thermo Fisher Scientific) and protein expression was induced with IPTG. Cells were lysed with Bugbuster (Sigma), and 6×his-La proteins were affinity purified using HisPur Cobalt Spin columns (Thermo Fisher Scientific), each according to the manufacturer's instructions. Endotoxin contaminates were depleted from affinity purified 6×his-La proteins using Pierce high-capacity endotoxin removal columns (Thermo Fisher Scientific), according to the manufacturer's instructions. Proteins were then sterile filtered, aliquoted and kept at −80 C.
# Plasmids were introduced into primary osteoclasts at day 2 of RANKL stimulation via jetPRIME (Polyplus Transfection). FLAG-La 1-408, FLAG-La 1-375 and FLAG-La 1-375 Q20A_Y24A_D33I plasmids were a gift of the Maraia Lab (NICHD). Briefly, SSB (UniProt P05455) was inserted between HindIII and BamHI the pFLAG-CMV2 vector (Sigma). “Uncleavable” La was produced by taking the FLAG-La 1-408 plasmid and making two point mutations at amino acids D371A and D374A, abrogating the caspase cleavage sites at the C-terminal region of the protein (Emory Integrated Genomics Core). siRNA were introduced into primary osteoclasts after 1 day of RANKL stimulation via Lipofectamine RNAiMAX (Thermo Fisher Scientific). Non-targeted (Cat #4390843) and SSB-targeted (Cat #4392420_ID:s13469) siRNA were introduced at a concentration of 5 ng/ml (Silencer Select, Ambion).
# Fusion Assays: Osteoclast fusion in the culture systems was evaluated by fluorescence microscopy (Verma et al., J Biol Chem 293, 254-270, doi:10.1074/jbc.M117.809681 (2018)). Briefly, cells were fixed with 4% paraformaldehyde at timepoints of interest, permeabilized with 0.1% TRITON™ X-100 and blocked with 5% FBS. Cells were then stained with phallodin-ALEXAFLURO®488 and Hoechst to label cells' actin cytoskeleton and nuclei, respectively. […]
molecule,measurement,setting,value
"recombinant La: recombinant La, species not specified at the place; 40 nM FL La in HA0-RBC assay (protein, UniProt P05455 1-408, looked up) Lupus La protein: MAENGDNEKMAALEAKICHQIEYYFGDFNLPRDKFLKEQIKLDEGWVPLEIMIKFNRLNRLTTDFNVIVEALSKSKAELMEISEDKTKIRRSPSKPLPEVTDEYKNDVKNRSVYIKGFPTDATLDDIKEWLEDKGQVLNIQMRRTLHKAFKGSIFVVFDSIESAKKFVETPGQKYKETDLLILFKDDYFAKKNEERKQNKVEAKLRAKQEQEAKQKLEEDAEMKSLEEKIGCLLKFSGDLDDQTCREDLHILFSNHGEIKWIDFVRGAKEGIILFKEKAKEALGKAKDANNGNLQLRNKEVTWEVLEGEVEKEALKKIIEDQQESLNKWKSKGRRFKGKGKGNKAAQPGSGKGKVQFQGKKTKFASDDEHDEHDENGATGPVKRAREETDKEEPASKQQKTENGAGDQ",synchronized osteoclast membrane fusion,[1],dramatically promoted
same,pelleting with liposomes,"[2]; PS containing liposomes, La alone",pelleted poorly
same,pelleting with liposomes,"[2]; PS containing liposomes, La with Anx A5, Ca^2+",pelleted with liposomes
same,pelleting with liposomes,[2]; liposomes lacking PS,neither La nor Anx A5 pelleted
same,HA0-cell bound RBCs that exchanged lipid (hemifusion) or cytoplasmic (fusion pore) probes,[3],none of 872
same,lower activity than fusion mediated by activated HA,[3],at least 100 fold
same,probability of La mediated fibroblast-RBC fusion,"[3]; upper limit by Wilson's method, 40 nM",≤ 0.0044 per cell contact
same,formation of multinucleated syncytia (osteoclast fusion),[4],promotes osteoclast fusion
